Each block holds one binder with its values, some of them ahead of it.
Experiments:
human Angiopoietin-2 [1] = biological target: T1, human Angiopoietin-2 (human, UniProt O15123 19-496); test: high resolution Biacore, 2nd experiment; kd held constant (*)
T1 construct: Mostly bought recombinant protein (R&D Systems 623-AM/CF, 623-AN; biotinylated BT623) or supernatant of transfected 293F cells; also called Ang-2; rhAng-2
T1 sequence: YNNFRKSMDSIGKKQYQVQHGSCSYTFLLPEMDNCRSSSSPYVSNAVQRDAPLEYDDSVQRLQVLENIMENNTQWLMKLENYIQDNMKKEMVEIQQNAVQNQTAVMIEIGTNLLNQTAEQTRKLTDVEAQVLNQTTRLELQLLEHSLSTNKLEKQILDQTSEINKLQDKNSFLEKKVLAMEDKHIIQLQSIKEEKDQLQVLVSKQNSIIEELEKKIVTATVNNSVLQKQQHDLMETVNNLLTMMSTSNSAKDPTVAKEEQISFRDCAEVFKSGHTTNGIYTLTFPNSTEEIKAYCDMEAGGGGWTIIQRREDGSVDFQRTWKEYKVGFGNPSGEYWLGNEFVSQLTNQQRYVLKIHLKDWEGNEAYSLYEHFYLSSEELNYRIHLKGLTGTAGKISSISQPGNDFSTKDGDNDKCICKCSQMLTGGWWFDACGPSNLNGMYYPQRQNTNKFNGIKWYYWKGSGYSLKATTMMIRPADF
Protocol: (§1) The mAb was then immobilized on flow cells 1-3 (CM5 Biacore chip) using routine amine coupling, leaving flow cell 4 as the reference flow cell.
(§2) The antibody surfaces were regenerated with a 6-second pulse of 15 mM NaOH after each injection cycle.
(§3) The sample injections alternated with three blank injection cycles. Each surface was regenerated with a 6-second pulse of 15 mM NaOH after each long off-rate injection cycle.

human Angiopoietin-2 [2] = biological target: T1, human Angiopoietin-2; test: high resolution Biacore, mAb immobilized, 1st experiment
Protocol: as §1, §2, §3

human Angiopoietin-2 [3] = biological target: T1, human Angiopoietin-2; test: KinExA, KD-controlled titration; KinExA, KD-controlled titration, 5 days at ~24 C
Protocol: For this purpose, a KinExA 3000 instrument was utilized. […] The beads were then centrifuged and washed once with blocking buffer (1×PBS, 10 mg/ml BSA), centrifuged again, and then incubated in blocking buffer for one hour at 24° C. After blocking, the beads were diluted in approximately 30 mL of HBS buffer (0.01 M Hepes, 0.15 M NaCl, pH 7.4) in a standard KinExA bead reservoir vial and placed on the instrument.
The KinExA instrument method used for the analysis of these solutions consisted of a bead packing step in which the PMMA beads were packed into a glass capillary, and the equilibrated solutions were flowed through the bead column at 0.25 mL/min for 6 min (1.5 mL) in duplicate. […] The fluorescence emission from the bead pack was measured at 670 nm with excitation at 620 nm. The resulting fluorescence measurements were converted into “% free nab binding site” versus total antigen concentration using the accompanying KinExA software package (version 1.0.3, Sapidyne, Inc.). The resulting KD-controlled titration curve was fit with the KinExA software to a 1:1 equilibrium isotherm with a drift correction factor included.

mouse Angiopoietin-2 = biological target: T2, mouse Angiopoietin-2 (mouse, UniProt O35608 19-496); test: competition ELISA: binding of mouse Ang-2 (culture supernatant) to coated human Tie2/Fc, mAb 3.19.3 titrated, bound Ang-2 detected with polyclonal anti-Ang-2
T2 construct: Used as conditioned medium of transfectants; also called mAng-2; mouse Ang-2
T2 sequence: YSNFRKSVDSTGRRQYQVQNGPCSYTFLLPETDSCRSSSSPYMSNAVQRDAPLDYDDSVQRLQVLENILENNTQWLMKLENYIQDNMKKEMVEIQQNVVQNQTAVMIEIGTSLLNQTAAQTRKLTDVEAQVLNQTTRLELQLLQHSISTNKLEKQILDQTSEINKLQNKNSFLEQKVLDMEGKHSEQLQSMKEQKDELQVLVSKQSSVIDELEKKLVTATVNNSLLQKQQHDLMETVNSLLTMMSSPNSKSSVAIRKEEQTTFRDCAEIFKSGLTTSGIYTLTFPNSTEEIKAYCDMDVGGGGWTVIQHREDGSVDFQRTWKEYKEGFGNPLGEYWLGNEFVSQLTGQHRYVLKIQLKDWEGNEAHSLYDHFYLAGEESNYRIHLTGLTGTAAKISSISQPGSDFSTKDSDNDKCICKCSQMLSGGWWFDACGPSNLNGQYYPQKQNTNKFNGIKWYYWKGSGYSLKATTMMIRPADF
Protocol: For this purpose, an ELISA plate was coated with 4 μg/ml of hTie2/Fc (R&D Systems, Inc.) at 100 μl/well, and the wells were blocked as routine at 4° C. overnight.
Each concentration of the mAb was tested in triplicate. […] OD650 was determined 30 min after the HRP substrate was added.

human Angiopoietin-2 [4] = biological target: T1, human Angiopoietin-2; test: high resolution Biacore, mAb immobilized, 2nd experiment
Protocol: as §1, §2, §3

human Angiopoietin-2 [5] = biological target: T1, human Angiopoietin-2; test: Biacore; kd held constant (*); kd held constant in the fit, not measured
Protocol: The label-free surface plasmon resonance (SPR), or Biacore, was utilized to measure the antibody affinity to the antigen. For this purpose, a high-density goat anti-human antibody surface over a CM5 Biacore chip was prepared using routine amine coupling. All the purified mAbs were diluted to approximately 8 μg/ml in HBS-P running buffer containing 100 μg/ml BSA and 10 mg/mL carboxymethyldextran. Each mAb was captured on a separate surface using a 42-second contact time, and a 5-minute wash for stabilization of the mAb baseline.
Data were fit globally to a 1:1 interaction model to determine the binding kinetics.

human Angiopoietin-1 = biological target: T3, human Angiopoietin-1 (human, UniProt Q15389 20-498, limits assumed); test: Biacore, mAb captured
T3 construct: Bought recombinant protein (R&D Systems 293-AN-025/CF) or supernatant of transfected 293F cells; also called Ang-1; recombinant Ang-1
T3 sequence: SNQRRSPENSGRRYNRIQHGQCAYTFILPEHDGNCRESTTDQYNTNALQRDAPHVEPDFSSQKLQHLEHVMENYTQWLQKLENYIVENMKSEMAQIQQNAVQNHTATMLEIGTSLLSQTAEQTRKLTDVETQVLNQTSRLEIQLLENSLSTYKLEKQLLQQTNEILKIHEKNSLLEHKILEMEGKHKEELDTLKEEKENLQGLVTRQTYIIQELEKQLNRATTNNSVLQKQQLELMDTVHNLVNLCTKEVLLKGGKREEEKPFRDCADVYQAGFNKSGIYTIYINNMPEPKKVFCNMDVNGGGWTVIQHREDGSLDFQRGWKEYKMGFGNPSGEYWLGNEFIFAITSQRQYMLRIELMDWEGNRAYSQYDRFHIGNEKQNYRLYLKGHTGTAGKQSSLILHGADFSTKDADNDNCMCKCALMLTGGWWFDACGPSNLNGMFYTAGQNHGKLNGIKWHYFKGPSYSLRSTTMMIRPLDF

- koff (human Angiopoietin-2 [1]): ~1e-06 s⁻¹
- Kd (human Angiopoietin-2 [2]): 5.3 pM
- kon (human Angiopoietin-2 [2]): 189000 M⁻¹ s⁻¹
- Kd (human Angiopoietin-2 [3]): 86.4 pM
- IC50 (read off the curve) (mouse Angiopoietin-2): ~2 µg/mL
- Kd (human Angiopoietin-2 [4]): 5.6 pM
- kon (human Angiopoietin-2 [4]): 178000 M⁻¹ s⁻¹
B1: mAb 3.19.3 (antibody, V domains shown)
VH: QVQLVESGGGVVQPGRSLRLSCAASGFTFTNYGMHWGRQAPGKGLEWVAVISHDGNNKYYVDSVKGRFTISRDNSKNTLYLQMNSLRAEDTAVYYCAREGIDFWSGLNWFDPWGQGTLVTVSS
VL: EIVLTQSPGTLSLSPGERATLSCRASQSITGSYLAWYQQKPGQAPRLLICGASSWATGIPDRFSGSGSGTDFTLTISRLEPEDFAVYYCQQYSSSPITFGQGTRLEIKR
notes: Human hybridoma IgG (XenoMouse); also called x3.19

- koff (human Angiopoietin-2 [5]): ≤ 1e-05 s⁻¹
B2: mAb 5.52.1 (antibody, V domains shown)
VH: QVQLVESGGGVVQPGRSLRLSCAASGFTFSSYGMHWVRQAPGKGLEWVAVRWYDESNKYYADSVKGRFTISRDNSKNTLYLQMNSLRAEDTAVYYCARDPFETGTTFDYWGQGTLVTVSS
VL: DIQMTQSPSSVSASVGDRVTITCRASQGISSWLAWYQQKPGKAPKLLIYAVSSLESGVPSRFSGSGSGTDFTLTISSLQPEDFATYYCQQALTFGGGTKVEIKR
notes: Human hybridoma IgG (XenoMouse); the line 5.52 has entries of its own (347, 349; light chain L2) that differ from the clone 5.52.1 (L5); also called x5.52

- binding result (human Angiopoietin-1): no binding (tested: 87.4 nM Ang-1)
B3: mAb 3.3.2 (antibody, V domains shown)
VH: EVQLVESGGGLVQPGGSLRLSCAVSGFTFSSYWMSWVRQAPGKGLEWVANIKQDGSEKYYVDSVKGRFTISRDNAKNSLYLQMNSLRAEDTAVYYCARDQGIAVAGPFDYWGQGTLVTVSS
VL: EIVMTQSPATLSVSPGERATLSCRASQTVSSDLAWYQQKPGQAPRLLIYGASIRATGIPARFSGSGSGTEFTLTISSLQSEDFAVYSCQQYYNWWTFGQGTKVEIKR
notes: Human hybridoma IgG (XenoMouse); also called 3.3.1; x3.3
